{
  "source": "the supplement of paper PMC11316812",
  "key": {"[1]": {"test_system": "MCF7", "test": "percentage of EdU-negative (G0-arrested) nuclei per well, 72 h; higher = more G0 arrest", "conditions": "reference: sequence is the full UniProt precursor, the tested protein was the secreted form or ectodomain"}, "[2]": {"test_system": "hTERT-HMEC", "test": "percentage of EdU-negative (G0-arrested) nuclei per well, 72 h; higher = more G0 arrest", "conditions": "reference: sequence is the full UniProt precursor, the tested protein was the secreted form or ectodomain"}, "[3]": {"conditions": "protein concentration 0.00828571 µM"}, "[4]": {"conditions": "protein concentration 0.0828571 µM"}},
  "note": "± gives the standard deviation of the averaged measurements.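 Also: secreted proteins added to cultured cells, EdU pulse at the end, nuclei found by Hoechst imaging, EdU status from nuclear versus surrounding ring intensity ratio, PBS as neutral control.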",
  "data": [
    {"sequence": "MICQKFCVVLLHWEFIYVITAFNLSYPITPWRFKLSCMPPNSTYDYFLLPAGLSKNTSNSNGHYETAVEPKFNSSGTHFSNLSKTTFHCCFRSEQDRNCSLCADNIEGKTFVSTVNSLVFQQIDANWNIQCWLKGDLKLFICYVESLFKNLFRNYNYKVHLLYVLPEVLEDSPLVPQKGSFQMVHCNCSVHECCECLVPVPTAKLNDTLLMCLKITSGGVIFQSPLMSVQPINMVKPDPPLGLHMEITDDGNLKISWSSPPLVPFPLQYQVKYSENSTTVIREADKIVSATSLLVDSILPGSSYEVQVRGKRLDGPGIWSDWSTPRVFTTQDVIYFPPKILTSVGSNVSFHCIYKKENKIVPSKEIVWWMNLAEKIPQSQYDVVSDHVSKVTFFNLNETKPRGKFTYDAVYCCNEHECHHRYAELYVIDVNINISCETDGYLTKMTCRWSTSTIQSLAESTLQLRYHRSSLYCSDIPSIHPISEPKDCYLQSDGFYECIFQPIFLLSGYTMWIRINHSLGSLDSPPTCVLPDSVVKPLPPSSVKAEITINIGLLKISWEKPVFPENNLQFQIRYGLSGKEVQWKMYEVYDAKSKSVSLPVPDLCAVYAVQVRCKRLDGLGYWSNWSNPAYTVVMDIKVPMRGPEFWRIINGDTMKKEKNVTLLWKPLMKNDSLCSVQRYVINHHTSCNGTWSEDVGNHTKFTFLWTEQAHTVTVLAINSIGASVANFNLTFSWPMSKVNIVQSLSAYPLNSSCVIVSWILSPSDYKLMYFIIEWKNLNEDGEIKWLRISSSVKKYYIHDHFIPIEKYQFSLYPIFMEGVGKPKIINSFTQDDIEKHQSDAGLYVIVPVIISSSILLLGTLLISHQRMKKLFWEDVPNPKNCSWAQGLNFQKPETFEHLFIKHTASVTCGPLLLEPETISEDISVDTSWKNKDEMMPTTVVSLLSTTDLEKGSVCISDQFNSVNFSEAEGTEVTYEDESQRQPFVKYATLISNSKPSETGEEQGLINSSVTKCFSSKNSPLKDSFSNSSWEIEAQAFFILSDQHPNIISPHLTFSEGLDELLKLEGNFPEENNDKKSIYYLGVTSIKKRESGVLLTDKSRVSCPFPAPCLFTDIRVLQDSCSHFVENNINLGTSSKKTFASYMPQFQTCSTQTHKIMENKMCDLTV", "values": [
      {"measurement": "percentage of EdU-negative", "setting": "[1]; protein concentration 0.012 µM", "result": "23.4 ± 3.1", "unit": "%"},
      {"measurement": "percentage of EdU-negative", "setting": "[1]; protein concentration 0.12 µM", "result": "21.2 ± 0.96", "unit": "%"},
      {"measurement": "percentage of EdU-negative", "setting": "[2]; protein concentration 0.012 µM", "result": "5.06 ± 0.43", "unit": "%"},
      {"measurement": "percentage of EdU-negative", "setting": "[2]; protein concentration 0.12 µM", "result": "5.17 ± 0.64", "unit": "%"}
    ]},
    {"sequence": "MGTATRRKPHLLLVAAVALVSSSAWSSALGSQTTFGPVFEDQPLSVLFPEESTEEQVLLACRARASPPATYRWKMNGTEMKLEPGSRHQLVGGNLVIMNPTKAQDAGVYQCLASNPVGTVVSREAILRFGFLQEFSKEERDPVKAHEGWGVMLPCNPPAHYPGLSYRWLLNEFPNFIPTDGRHFVSQTTGNLYIARTNASDLGNYSCLATSHMDFSTKSVFSKFAQLNLAAEDTRLFAPSIKARFPAETYALVGQQVTLECFAFGNPVPRIKWRKVDGSLSPQWTTAEPTLQIPSVSFEDEGTYECEAENSKGRDTVQGRIIVQAQPEWLKVISDTEADIGSNLRWGCAAAGKPRPTVRWLRNGEPLASQNRVEVLAGDLRFSKLSLEDSGMYQCVAENKHGTIYASAELAVQALAPDFRLNPVRRLIPAARGGEILIPCQPRAAPKAVVLWSKGTEILVNSSRVTVTPDGTLIIRNISRSDEGKYTCFAENFMGKANSTGILSVRDATKITLAPSSADINLGDNLTLQCHASHDPTMDLTFTWTLDDFPIDFDKPGGHYRRTNVKETIGDLTILNAQLRHGGKYTCMAQTVVDSASKEATVLVRGPPGPPGGVVVRDIGDTTIQLSWSRGFDNHSPIAKYTLQARTPPAGKWKQVRTNPANIEGNAETAQVLGLTPWMDYEFRVIASNILGTGEPSGPSSKIRTREAAPSVAPSGLSGGGGAPGELIVNWTPMSREYQNGDGFGYLLSFRRQGSTHWQTARVPGADAQYFVYSNESVRPYTPFEVKIRSYNRRGDGPESLTALVYSAEEEPRVAPTKVWAKGVSSSEMNVTWEPVQQDMNGILLGYEIRYWKAGDKEAAADRVRTAGLDTSARVSGLHPNTKYHVTVRAYNRAGTGPASPSANATTMKPPPRRPPGNISWTFSSSSLSIKWDPVVPFRNESAVTGYKMLYQNDLHLTPTLHLTGKNWIEIPVPEDIGHALVQIRTTGPGGDGIPAEVHIVRNGGTSMMVENMAVRPAPHPGTVISHSVAMLILIGSLEL", "values": [
      {"measurement": "percentage of EdU-negative", "setting": "[1]; [3]", "result": "24.5 ± 3", "unit": "%"},
      {"measurement": "percentage of EdU-negative", "setting": "[1]; [4]", "result": "25.1 ± 0.57", "unit": "%"},
      {"measurement": "percentage of EdU-negative", "setting": "[2]; [3]", "result": "5.61 ± 0.96", "unit": "%"},
      {"measurement": "percentage of EdU-negative", "setting": "[2]; [4]", "result": "5.98 ± 2", "unit": "%"}
    ]}
  ]
}
